How the values were obtained:
[1] = tested on: CD8+CD45.1+ OT-I cells; experiment: In vivo proliferative T cell responses, adoptive transfer of CFSE labelled OT-I cells; set-up: species or system C57BL/6 mice; conditions: 3 μg OVA alone or with 3-fold molar excess lipopeptide, s.c., inguinal LNs day 3
Description: In vivo proliferative T cell responses. […] Inguinal LNs were obtained 3 days after vaccination and CFSE intensities of CD8^+CD45.1^+ cells measured by flow cytometry.
To characterise early events associated with vaccine-mediated induction of CD8^+ T cell responses, the present inventors utilised the adoptive transfer of CD8^+ T cells from OTI transgenic mice that express the Vα2 TCR specific for OVA257. […] Analysis of OTI T cells in the draining lymph nodes of vaccinated animals was then carried out 3 days later and the loss of CFSE in these cells was used as an indicator of T cell proliferation.

[2] = Optical density of antigen and lipopeptide formulations (450 nm); type: physicochemical; conditions: constant OVA (25 μg) plus increasing lipopeptide, up to 3-fold molar excess, PBS
Description: Optical density of antigen and lipopeptide formulations. A constant amount (0.55 nmol; 25 μg) of OVA was mixed with each lipopeptide at different protein:lipopeptide molar ratios in 50 μl of PBS in a 96-well plate at room temperature. The optical density of these solutions was then measured on a plate reader at a wavelength of 450 nm.

[3] = Dynamic light scattering analysis of vaccine formulations; type: physicochemical
Description: FIG. 3. Particle size distribution of antigen and lipopeptide formulations. OVA (25 μg) was mixed with each lipopeptide at a 1:3 molar ratio of protein to lipopeptide in […] of PBS in a 96-well plate at room temperature. The size distribution of particulates in samples were then analysed by dynamic light scattering with each profile depicting the hydrodynamic radius (nm) of particles detected versus the percentage intensity of scattered light (% intensity).
To determine the size of complexes formed between OVA and each lipopeptide, we analysed these formulations by dynamic light scattering.

In the case of “OVA: protein antigen OVA used as model antigen, alone”, the “division of T cells (percentage of OT-I cells which proliferated)” value [1] is reported as ~37%.

With `CCCCCCCCCCCCCCCC(=O)OCC(CSCC(N)C(=O)N[C@@H](CO)C(=O)N[C@@H](CO)C(=O)NCCCC[C@H](NC(=O)[C@H](CCCCNC(=O)[C@H](CCCCNC(=O)[C@@H](N)CCCNC(=N)N)NC(=O)[C@@H](N)CCCNC(=N)N)NC(=O)[C@H](CCCCNC(=O)[C@@H](N)CCCNC(=N)N)NC(=O)[C@@H](N)CCCNC(=N)N)C(N)=O)OC(=O)CCCCCCCCCCCCCCC` (some centres unmarked) [R4Pam2Cys] the “optical density (OD) of solutions, solubility” value [2] was “increase in OD”.

B1: OVA: protein antigen OVA used as model antigen, alone (protein, UniProt P01012 2-386, looked up)
Ovalbumin: GSIGAASMEFCFDVFKELKVHHANENIFYCPIAIMSALAMVYLGAKDSTRTQINKVVRFDKLPGFGDSIEAQCGTSVNVHSSLRDILNQITKPNDVYSFSLASRLYAEERYPILPEYLQCVKELYRGGLEPINFQTAADQARELINSWVESQTNGIIRNVLQPSSVDSQTAMVLVNAIVFKGLWEKAFKDEDTQAMPFRVTEQESKPVQMMYQIGLFRVASMASEKMKILELPFASGTMSMLVLLPDEVSGLEQLESIINFEKLTEWTSSNVMEERKIKVYLPRMKMEEKYNLTSVLMAMGITDVFSSSANLSGISSAESLKISQAVHAAHAEINEAGREVVGSAEAGVDAASVSEEFRADHPFLFCIKHIATNAVLFFGRCVSP
With B1 the “Hydrodynamic diameter (nm)” value ([3]; DLS at 25° C in PBS, mixtures: OVA 25 μg, 1:3 molar ratio protein to lipopeptide) was 199.5 ± 42.6 nm, the “% Pd (polydispersity)” value ([3]; DLS at 25° C, <20% is considered monodispersed) was 27.1 ± 11.5% and the “particle size of sample alone” value ([3]; OVA or lipopeptide alone) was 157-242 nm.

Source: patent US20170274068A1, “IMMUNOLOGICAL REAGENT” (priority 2014, published 2017)
